For 2 proteins, Km results are on record in publication PMC5316894, “Cationic amino acid transporters play key roles in the survival and transmission of apicomplexan parasites” (Nature Communications, 2017).

Test in all cases: cells, lysate or membranes
Substrate in data set [1]: N=C(N)NCCC[C@H](N)C(=O)O
The class given is cell-based, Toxoplasma gondii. The note with it: ND96, pH 7.4, 0-1 mM arginine, labelled compound, Figure 3 legend prints 88±16.

Substrate in data set [2]: N=C(N)NCCC[C@H](N)C(=O)O
The class given is cell-based, Plasmodium berghei. Conditions: ND96, pH 7.4, 125 μM unlabelled methionine present to lower background, labelled compound.

Substrate in data set [3]: NCCCC[C@H](N)C(=O)O
It is filed as cell-based, Plasmodium berghei. The note with it: ND96, pH 7.4, 500 μM unlabelled methionine present to lower background, labelled compound.

B1: TgNPT1 (TgNPT1-HA) (Toxoplasma gondii ME49) (protein)
chain: MAGLLSSCCGRVYALLPDSAHPSAQQKTPFGVNRYVLLVIYMIYALLTSSVYFGWRSMSAMLFKSGQFSWVCTGESADTSPEEGETDYLCALQDTKVQSLFTIAMACHFTCSAVAGYLLDTVGPKAVALLGQTFNALAWILLAFSGPNFRSVYPAFVFMGAGADVSVYPTLLIVNLFPGSTALIMATLGACISLSFFVPLVLRTMWESTGISFEAVCIGYAVAGPILCAVVAFFFIPFKAFKGVDNFSACVEAEKLANSPTAQSSPKAVDSPPCDEGASSRGRLAVSHNTERTAPDDEQEKDNTERISLSDLACDPRFKKQKVSFSSQAFTFLYFGICLYFTVCGWVMAYYQEAAGRFLCNDAEYTLEILTPLSTIPCLLFGVVINRIGIMPVILMLNTIGLLTYVCVVAAESVVAQYFSVIFFFMYISIFTTQMYVFVESTFDSAHFGKLIGVASLIGGLLSLISNVLYGDVTVGMLNGDTRPVVIALLAVIILMYPILLAMRTKRNRKKQMEQEDIRSRVLELKAAHAADAA
notes: full ORF from RH cDNA, C-terminal HA tag, cRNA in Xenopus laevis oocytes (pGHJ-HA); calculated 58 kDa, runs at ~40 kDa in parasites; 12 predicted TM domains
As for B1, the Km in data set [1] was determined as 88 ± 15 µM.

B2: PbNPT1 (PbNPT1-HA) (Plasmodium berghei ANKA) (protein)
chain: MNESNCTKIVNFLKGMRLKTNPNLPGAKQKTPLNIHRFYLLLIIIIYTATSACIYFDWTSIRNLLLNVGKYEHLNISKYADITLSPQYKKINNLYPMTLAIHFTMSVFCGFLYDHIGPKFTAIIGQGFNILSWIFLSIDTTKIDTTLIGFIFLGLGADTAFIPILTVSNLFPDISTFIMTVIGAAASLSYAVPATLNFVYKKYPHFPFYYICYGYIFIILIPCLLVATFLLPMKPFKGLDYYLENDQESDSKNKEQISYTDNDVEMQPSLIQNGNTNVSNNVNKNKATKNIIEGENFHKQSILLFFKVLLSYPSICIIVYFILFNISTVFYGMVTDIYFSYNKSIINIINILMPISFIPCIIFGRFINKYGAAIIIIIMNAFSALMHLTALIKHQAAGLISAFLYMCAASIYTSQIYCFLLNAFPSVVFGKLLGITSLFGGMFSLFCEKLYDNISNSSGNKNDPTTISILLAISFIIMFLPLSILYTRNYEKNIESVNSEKNQIQA
notes: full ORF, synthetic codon-harmonized gene, C-terminal HA tag, cRNA in Xenopus laevis oocytes (pGHJ-HA)
For the protein B2, the Michaelis constant (Km) is 41 ± 9 µM in data set [2] and 130 ± 26 µM in data set [3].

For orientation: Km means the substrate concentration at which the rate is half of its maximum.
